According to a protein production outcome set (Wang et al. 2014):

Experiment: label from the status in PepcDB records

Sequence | protein production
MRQHGKVSEVTEKKTAVYVDDQQRILIRQLARSWLWRSELPTWLLIVTVYGGWFACVAGWRTLGLFPATLLLIWFTAWYMSLQHELIHGHPTRLAWFNQLLGTLPLAVWYPYGVYRDSHLAHHRNHLLTHPEDDPESYYVTAESWQRFSAWQRRLIHLRNTFWGRLLLAPMMDIIHTLNSALRAFREGDRRAIAMWSLHLLLLTGLLTWMAAQGFSPLWFVLAVSYPALALTKVRSFLEHRAADDPLARSVINEAGLPWRVLFLNLNYHAVHHDLPGVPWYALRQLYLHRQAAYLQRNQGFLVRGYGEWRRHFSRRAVAVNAHPGFGEQAQAGGEHG | failed
MVNVDGKREEDEEVIEVEGMGANKSARMLERLHVVHQYVARWVYSHGIPFNAIANDDLRRMLEVAGQFGPGVTPPSQYQLREPLLKEEVVRMKGLMEEQEDEWRVNGCSVTTDSWSDRKRRSIMNLCINCKEGTMFLSSKDCFDDSHTGEYIFAYVNEYCIKNLGGDHVVQVVTNNATNNITAAKLLKEVRPTIFWTFCATHTINLMVEGISKLAMSDEIVKMAKAFTIFIYAHHQTLSMMRSFTKRRDIVRPGIIGFASAFRTLKSLVEKEENLKVKRKKKKKLSKATTMVVL | failed
MATFDTRHRTALTMSADRLEQLKTFHEEDPEDPFTRYALAQEHLKHDNASRALALFEELVETDPDYVGTYYHLGKLYERLDRTDDAIDTYAQGIEVAREEGTQKDLSELQDAKLKAEGLEHHHHHH | not failed
MSDSPRPSSRPDFWDVRYERDRHLFGAEPNAFVKAEAHRLPPESEVVEVGAGEGRTAAWLAREHGHRVTAVDFSETALKTAQERAEAEHLRLDTVRADVRTWRPDRQWDAAVVTFLQLLPDERPRLYRLLKNSVRSGGWLLAEWLRPAHLTGPYDRMGPSRADRMVPVDEVRRAFADEHLASVEAVDVHLQEGPHLTGDAAVVRGIVQAGAS | failed
MKDISLKDKITQGINDLFYIWKREFRTTFRDQGVLIFFVLVPLVYPLIYSFIYTNEVVREVPAVVVDDSRSSLSREYLRKVDATPDIQIVAYCADMEEAKQMLKDRLAYGIIYIPKDFSSDIAQGKQTQVSIYCDMSGLLYYKSMLLANTAVSLDMNENIKIARSGNTTDRQDEITAYPIEYEDVAMFNPTNGFAAFLIPAVLILIIQQTLLLGIGLSAGTARENNRFKDLVPINRHYNGTLRIVLGKGLSYFMVYALVSVYVLCAVPRMFSLNQIGQPGTLALFILPYLMACIFFAMTASIAIRNRETCMLIFVFTSVPLLFISGISWPGAAIPPFWKYFSYIFPSTFGINGFVRINNMGATLSEIPFEYKALWIQTGFYFLTTCWVYRWQIIKSRKHVIDKYKEMKNKGKEFFS | failed
MAFSGSQAPYLSPAVPFSGTIQGGLQDGLQITVNGTVLSSSGTRFAVNFQTGFSGNDIAFHFNPRFEDGGYVVCNTRQNGSWGPEERKTHMPFQKGMPFDLCFLVQSSDFKVMVNGILFVQYFHRVPFHRVDTISVNGSVQLSYISFQNPRTVPVQPAFSTVPFSQPVCFPPRPRGRRQKPPGVWPANPAPITQTVIHTVQSAPGQMFSTPAIPPMMYPHPAYPMPFITTILGGLYPSKSILLSGTVLPSAQRFHINLCSGNHIAFHLNPRFDENAVVRNTQIDNSWGSEERSLPRKMPFVRGQSFSVWILCEAHCLKVAVDGQHLFEYYHRLRNLPTINRLEVGGDIQLTHVQT | not failed
MEELQEPLRGQLRLCFTQAARTSLLLLRLNDAALRALQECQRQQVRPVIAFQGHRGYLRLPGPGWSCLFSFIVSQCCQEGAGGSLDLVCQRFLRSGPNSLHCLGSLRERLIIWAAMDSIPAPSSVQGHNLTEDARHPESWQNTGGYSEGDAVSQPQMALEEVSVSDPLASNQGQSLPGSSREHMAQWEVRSQTHVPNREPVQALPSSASRKRLDKKRSVPVATVELEEKRFRTLPLVPSPLQGLTNQDLQEGEDWEQEDEDMDPRLEHSSSVQEDSESPSPEDIPDYLLQYRAIHSAEQQHAYEQDFETDYAEYRILHARVGTASQRFIELGAEIKRVRRGTPEYKVLEDKIIQEYKKFRKQYPSYREEKRRCEYLHQKLSHIKGLILEFEEKNRGS | failed
MRGVFLDKDKIPYDLVTKKLNEWYTSIKNDQVEQAEIIKTEVEKELLNMEENQDALLYYQLLEFRHEIMLSYMKSKEIEDLNNAYETIKEIEKQGQLTGMLEYYFYFFKGMYEFRRKELISAISAYRIAESKLSEVEDEIEKAEFFFKVSYVYYYMKQTYFSMNYANRALKIFREYEEYAVQTVRCQFIVAGNLIDSLEYERALEQFLKSLEISKESNIEHLIAMSHMNIGICYDELKEYKKASQHLILALEIFEKSKHSFLTKTLFTLTYVEAKQQNYNVALIYFRKGRFIADKSDDKEYSAKFKILEGLFFSDGETQLIKNAFSYLASRKMFADVENFSIEVADYFHEQGNLMLSNEYYRMSIEARRKIKKGEIIDENQPDSIGSSDFK | failed
IAKNNYKELIQNIIEESYTDSQFTLSVLSEKLDLSSGYLSIMFKKNFGIPFQDYLLQKRMEKAKLLLLTTELKNYEIAEQVGFEDVNYFITKFKKYYQITPKQYREMVLKNE | failed
MSLKIAKVEALSVAMGDGTGWMPTSAFVRITAEDGTVGWGEASPMLGGIASLGVVARDIAPFLEGQEVLDHAVLLDRMMHRLVKLGPEGIATAALAACDIALWDLKGKLLGQPIYKLLGGAWRTRLPCYSSIGGNAARSVDEVVREVARRVEAEQPAAVKIRWDGDRTRCDVDIPGDIAKARAVRELLGPDAVIGFDANNGYSVGGAIRVGRALEDLGYSWFEEPVQHYHVGAMGEVAQRLDITVSAGEQTYTLQALKDLILSGVRMVQPDIVKMGGITGMMQCAALAHAHGVEFVPHQTQPGVGHFANIHVLSTLMHMTKPVELADRWDRGRPVFRNPAEPVDGHFALGDAPGLGIVVDEDELASRATEITVGRDQRPPAGGQYEGHHHHHH | not failed
MCTEFWNSFSNLFTGGRSTNRKIILVLLIMVLSSGVCSADNYVGGIPLTSAHSGTVSGGVYCDSYYGMGDQEAKASNTIEKTFTVPDNANVEWAMLLTNVYCGHMQNNYQGKAKVDFNGKNLGTETLNVPYTYSYNGGNGHVQVNDHVNRVTSDYMMYYDVTGLVKAGKNTAVVKTDPLDSSFDGRIRLVTLVVAYNDGSKKTIWYQVNRGHDADSYYSDDEMNENYIGSTAFQAALPEGSSLTDSKLTLVYQASSDGAYAFNGNALSSGTPQGTFSGSNTWDVKDSLKSSGTNTLTYDRTASFYKSVLGILTAEYTTSSSGDSTDDTPADNTTDNGSAGDTTDDISSDNTTNDTSSDNTTSDVPAGNTTNDTPADNTTDAKFSADLGVQAIKVSHNSAAKAWKNLVNTVNVTVINNGPEKAGSFALELYSEGSLLESKPINGLANGATEAVEFVWKPEDAKNYTLRAVVVPGSTINDANATNNELSKTQEVMHNGYIGDKPLETYLHGTVKGNIIYDYGNSSYVKVSSGDVYTAGHSLSLPEGAIVKYARLYNFWTWSATGSSGVIPSMSLDFAGSSLTPEAEYADQKGWGQYDYPTGTWAYNVTGLVSGSGNYITTVKNTNSDAENSFCIDGIALLVVYEDASGKETQYWINEGCDAVSTMSSSGGLTPDEATVKIAFAGDSIDLGNVDNARLWTTVQSGGHEGIALKFNEMSISGVYDSTPSSNLDIDEARDVTSYLLSQNNEAQIIAPSVTDNSGDYMIPSSAILAVSYKSETTDDTNITDDTNVTDDTNVTDGTNVTDDTNVTDGTNVTNDTNVTNDTNVTNDTNVTNDTNVTNDTNVTNDTNVTDDTNVTDGTNVTDGTNVTIDTNVTIDTNVTIDTNVTDNTNVTDDTNMKDDTNVTLKVNIIPVISLTVSPDSLDFGTVSPGTPSESLPLALKNNGGISIKVTAEVHDQENGPFATGLLLDQNIWSNYSKVLAAESAETSQAQLDLPLNYSSTGQFQGTLSLWAEAA | failed
MSTEDALCFTGEEYARHVREYWRGVAESDGFDSEDIRSPVVLTGLFHYDCQSGRRYPDPLLVKRYALLGLHRFNILQGTSFELDALQKFNKTMNLTSSYYITLLANEPGAIPLQKTFQVRVDERKYDTLDLTVAIARLKKDQNEAAETTKEPFVPHFCCSAVSDGVFQGPLPDWPSDDALRHDRNRFYELEKSEWQATDWISLYLELLILATDRGMFGVAQTGLPQVQILKVVIETEEENEKPLDKRLNARRAHVYITFTGLPKSPRLVEIGEHVERKAIIRRVIDDSGYLTLLGKFWSGKDTEQRSKTRQSEEKVESSQKRSRLC | failed
MTKRVTCSACDGFGAEGGETGMVSCNSCEGNGFILKNQRSIFGTVQSQMLCQSCGGQGKQALEHHHHHH | failed
